Laboratory results published in the Immune Epitope Database (IEDB).

Experiments:
Assay in all cases: IEDB peptide-MHC binding, purified MHC/competitive/radioactivity; filed as Kd, often an IC50 or EC50 that approximates it; ≥ and ≤ were set here for values at or beyond the usual limits of such assays
HLA-A*11:01 = molecular target: HLA-A*11:01
HLA-A*03:01 = molecular target: HLA-A*03:01
HLA-A*33:01 = molecular target: HLA-A*33:01
HLA-A*68:01 = molecular target: HLA-A*68:01
HLA-A*31:01 = molecular target: HLA-A*31:01
[1] = source organism: Vaccinia virus WR
[2] = source organism: Dengue virus 1 Brazil/97-11/1997
[3] = source organism: Dengue virus 2 Jamaica/1409/1983
[4] = source organism: SARS coronavirus Tor2
[5] = source organism: Lassa virus Josiah
[6] = source organism: Dengue virus 1 Singapore/S275/1990
[7] = source organism: Dengue virus 3 Martinique/1243/1999

EVGSIRCVKY
Kd (HLA-A*11:01; [1]): ≥ 69800 nM
Kd (HLA-A*03:01; [1]): ≥ 70100 nM
Kd (HLA-A*33:01; [1]): ≥ 47800 nM
Kd (HLA-A*68:01; [1]): 1510 nM
Kd (HLA-A*31:01; [1]): ≥ 47000 nM

EVTNPAVLR
Kd (HLA-A*33:01; [2]): 91.7 nM
Kd (HLA-A*68:01; [2]): 40 nM

FLMSGKGIGK
Kd (HLA-A*11:01; [3]): 99.8 nM
Kd (HLA-A*03:01; [3]): 42.6 nM

FSLESDSIK
Kd (HLA-A*11:01; [1]): 565 nM
Kd (HLA-A*03:01; [1]): 1570 nM
Kd (HLA-A*33:01; [1]): 2220 nM
Kd (HLA-A*68:01; [1]): 187 nM
Kd (HLA-A*31:01; [1]): 960 nM

FSTSAADIKR
Kd (HLA-A*11:01; [1]): 247 nM
Kd (HLA-A*03:01; [1]): 18000 nM
Kd (HLA-A*33:01; [1]): ≥ 22500 nM
Kd (HLA-A*68:01; [1]): 16.5 nM
Kd (HLA-A*31:01; [1]): 11100 nM

GANYLGKPK
Kd (HLA-A*11:01; [4]): 1080 nM
Kd (HLA-A*03:01; [4]): 510 nM
Kd (HLA-A*33:01; [4]): ≥ 77700 nM
Kd (HLA-A*68:01; [4]): 3450 nM
Kd (HLA-A*31:01; [4]): 1480 nM

GMLQGRGPLK
Kd (HLA-A*11:01; [3]): 37.9 nM
Kd (HLA-A*03:01; [3]): 6.17 nM

GVTLFFLSGK
Kd (HLA-A*11:01; [2]): 23.8 nM
Kd (HLA-A*03:01; [2]): 13.1 nM

GVVRVWDVK
Kd (HLA-A*11:01; [5]): 11.1 nM
Kd (HLA-A*03:01; [5]): 5790 nM
Kd (HLA-A*33:01; [5]): ≥ 24200 nM
Kd (HLA-A*68:01; [5]): 129 nM
Kd (HLA-A*31:01; [5]): ≥ 45000 nM

HIASKINNNR
Kd (HLA-A*11:01; [1]): 4030 nM
Kd (HLA-A*03:01; [1]): 1960 nM
Kd (HLA-A*33:01; [1]): 5950 nM
Kd (HLA-A*68:01; [1]): 18.8 nM
Kd (HLA-A*31:01; [1]): 959 nM

HIVCSKTVK
Kd (HLA-A*11:01; [1]): 1590 nM
Kd (HLA-A*03:01; [1]): 291 nM
Kd (HLA-A*33:01; [1]): ≥ 32800 nM
Kd (HLA-A*68:01; [1]): 118 nM
Kd (HLA-A*31:01; [1]): 623 nM

HMIVGRQEK
Kd (HLA-A*03:01; [3]): 66.6 nM

IILSKIPYLR
Kd (HLA-A*11:01; [1]): 40.7 nM
Kd (HLA-A*03:01; [1]): 40.9 nM
Kd (HLA-A*33:01; [1]): 251 nM
Kd (HLA-A*68:01; [1]): 0.777 nM
Kd (HLA-A*31:01; [1]): 4.77 nM

IINDKGKQY
Kd (HLA-A*11:01; [1]): 8380 nM
Kd (HLA-A*03:01; [1]): 1940 nM
Kd (HLA-A*33:01; [1]): ≥ 77700 nM
Kd (HLA-A*68:01; [1]): ≥ 77700 nM
Kd (HLA-A*31:01; [1]): ≥ 77900 nM

IINFTISMRY
Kd (HLA-A*11:01; [1]): 1.71 nM
Kd (HLA-A*03:01; [1]): 35.3 nM
Kd (HLA-A*33:01; [1]): 5210 nM
Kd (HLA-A*68:01; [1]): 690 nM
Kd (HLA-A*31:01; [1]): 1420 nM

IISEEYLSK
Kd (HLA-A*11:01; [1]): 27 nM
Kd (HLA-A*03:01; [1]): 103 nM
Kd (HLA-A*33:01; [1]): ≥ 59300 nM
Kd (HLA-A*68:01; [1]): 7850 nM
Kd (HLA-A*31:01; [1]): 10100 nM

ILARWGSFK
Kd (HLA-A*11:01; [6]): 77.8 nM
Kd (HLA-A*03:01; [6]): 2.13 nM

ILKKLSSIK
Kd (HLA-A*11:01; [1]): 1090 nM
Kd (HLA-A*03:01; [1]): 4.69 nM
Kd (HLA-A*33:01; [1]): 1560 nM
Kd (HLA-A*68:01; [1]): 4810 nM
Kd (HLA-A*31:01; [1]): 3180 nM

IMKSVGTGK
Kd (HLA-A*03:01; [7]): 4.95 nM

INMLKRVRNR
Kd (HLA-A*31:01; [7]): 1570 nM

IQFMMSRRR
Kd (HLA-A*11:01; [4]): 369 nM
Kd (HLA-A*03:01; [4]): 353 nM
Kd (HLA-A*33:01; [4]): 1440 nM
Kd (HLA-A*68:01; [4]): 1490 nM
Kd (HLA-A*31:01; [4]): 4.4 nM
